# According to article PMC7527733:
# Key:
# [1] = target: Elizabethkingia anophelis strain AG1 short CDC-like protein (CDCL^S) (Elizabethkingia anophelis strain AG1); experiment: […]) in 20 mM HEPES (pH 7), 150 mM NaCl, […] (55:45) […]
# [2] = target: Elizabethkingia anophelis strain AG1 CDC-like protein (CDCL) (Elizabethkingia anophelis strain AG1); experiment: SDS-agarose gel electrophoresis (SDS-AGE)
Substance,stoichiometry N [1] [monomers],stoichiometry N [2]
Elizabethkingia anophelis strain AG1 short CDC-like protein (CDCL^S) (natural protein),28,–
Elizabethkingia anophelis strain AG1 CDC-like protein (CDCL) (natural protein),–,2
